T1: human FcγRIIa(R) (allotype R131) (human, UniProt P12318 36-217)
T1 construct: Soluble analyte in SPR; also called hFcgRIIa(R); FcgRIIaR
T1 chain: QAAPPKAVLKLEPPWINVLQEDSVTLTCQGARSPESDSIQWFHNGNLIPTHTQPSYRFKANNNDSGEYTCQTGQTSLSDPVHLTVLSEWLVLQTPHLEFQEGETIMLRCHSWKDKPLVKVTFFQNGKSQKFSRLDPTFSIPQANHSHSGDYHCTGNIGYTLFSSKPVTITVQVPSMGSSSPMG

T2: human FcγRIIa(H) (allotype H131) (human, UniProt P12318 36-217)
T2 construct: Soluble analyte in SPR; also called hFcgRIIa(H); FcgRIIaH
T2 sequence: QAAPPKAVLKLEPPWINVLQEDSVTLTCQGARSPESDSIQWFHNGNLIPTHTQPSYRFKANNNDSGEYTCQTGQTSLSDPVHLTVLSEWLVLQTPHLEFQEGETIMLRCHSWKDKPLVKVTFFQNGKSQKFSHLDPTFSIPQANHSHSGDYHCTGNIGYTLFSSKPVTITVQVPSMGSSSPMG

T3: human FcγRIIb (human, UniProt P31994 43-217, limits assumed)
T3 construct: Soluble analyte in SPR; also called hFcgRIIb; FcgRIIb
T3 sequence: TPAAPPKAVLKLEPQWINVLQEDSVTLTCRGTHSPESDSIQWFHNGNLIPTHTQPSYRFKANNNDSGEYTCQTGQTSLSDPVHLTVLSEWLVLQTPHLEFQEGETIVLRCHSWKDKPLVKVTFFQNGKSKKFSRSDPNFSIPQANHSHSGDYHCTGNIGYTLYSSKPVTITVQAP

T4: human FcγRIIb (human, UniProt P31994 43-217)
T4 construct: also called FcγIIB
T4 sequence: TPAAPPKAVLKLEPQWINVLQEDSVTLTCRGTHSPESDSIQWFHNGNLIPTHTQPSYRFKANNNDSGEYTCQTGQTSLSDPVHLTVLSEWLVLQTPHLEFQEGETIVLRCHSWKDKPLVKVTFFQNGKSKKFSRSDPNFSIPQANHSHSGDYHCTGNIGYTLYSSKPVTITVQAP

T5: human FcγRIIa type R (human, UniProt P12318 36-217)
T5 construct: also called FcγRIIaR; Fc γ RIIaR
T5 chain: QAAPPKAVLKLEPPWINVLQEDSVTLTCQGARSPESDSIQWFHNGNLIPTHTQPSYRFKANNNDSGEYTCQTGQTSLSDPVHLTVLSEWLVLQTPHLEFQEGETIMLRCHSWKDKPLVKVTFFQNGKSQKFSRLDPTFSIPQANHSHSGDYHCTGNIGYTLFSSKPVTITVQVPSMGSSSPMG

B1: GpH7-B3 variant I332P / GpL16-k0 (antibody, human IgG1)
heavy: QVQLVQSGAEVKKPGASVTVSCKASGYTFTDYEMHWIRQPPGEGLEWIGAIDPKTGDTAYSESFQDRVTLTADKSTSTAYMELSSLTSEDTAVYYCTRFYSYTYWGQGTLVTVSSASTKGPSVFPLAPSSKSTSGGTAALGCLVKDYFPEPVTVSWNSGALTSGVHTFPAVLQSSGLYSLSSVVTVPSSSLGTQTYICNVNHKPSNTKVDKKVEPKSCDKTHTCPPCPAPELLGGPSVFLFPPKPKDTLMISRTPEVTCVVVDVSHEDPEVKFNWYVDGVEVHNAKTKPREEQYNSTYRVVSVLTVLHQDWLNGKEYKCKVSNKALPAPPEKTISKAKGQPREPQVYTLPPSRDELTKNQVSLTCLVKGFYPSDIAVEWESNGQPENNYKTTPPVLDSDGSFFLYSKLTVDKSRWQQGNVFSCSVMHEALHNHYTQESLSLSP
light: DIVMTQSPLSLPVTPGEPASISCQASESLVHSNRNTYLHWYLQKPGQSPQLLIYKVSNRFSGVPDRFSGSGSGTDFTLKISRVEAEDVGVYYCSQNTHVPPTFGQGTKVEIE
notes: Anti-glypican-3 human IgG1 with B3 constant region; position by EU numbering
B2: GpH7-B3 variant P329E / GpL16-k0 (antibody, human IgG1)
heavy: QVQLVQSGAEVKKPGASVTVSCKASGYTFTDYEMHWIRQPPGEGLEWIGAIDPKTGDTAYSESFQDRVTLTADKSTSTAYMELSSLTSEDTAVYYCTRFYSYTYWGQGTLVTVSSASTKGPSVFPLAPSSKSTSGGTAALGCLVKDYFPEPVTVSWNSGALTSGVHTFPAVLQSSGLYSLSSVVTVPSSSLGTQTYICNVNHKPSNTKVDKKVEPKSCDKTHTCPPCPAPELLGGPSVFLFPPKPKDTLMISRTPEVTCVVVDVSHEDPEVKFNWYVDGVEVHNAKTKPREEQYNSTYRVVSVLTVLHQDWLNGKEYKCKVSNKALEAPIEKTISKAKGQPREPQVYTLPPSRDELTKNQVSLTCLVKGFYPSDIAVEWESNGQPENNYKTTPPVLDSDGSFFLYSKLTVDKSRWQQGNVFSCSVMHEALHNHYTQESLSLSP
light: DIVMTQSPLSLPVTPGEPASISCQASESLVHSNRNTYLHWYLQKPGQSPQLLIYKVSNRFSGVPDRFSGSGSGTDFTLKISRVEAEDVGVYYCSQNTHVPPTFGQGTKVEIE
notes: as for B1
B3: GpH7-B3 variant I332R / GpL16-k0 (antibody, human IgG1)
heavy: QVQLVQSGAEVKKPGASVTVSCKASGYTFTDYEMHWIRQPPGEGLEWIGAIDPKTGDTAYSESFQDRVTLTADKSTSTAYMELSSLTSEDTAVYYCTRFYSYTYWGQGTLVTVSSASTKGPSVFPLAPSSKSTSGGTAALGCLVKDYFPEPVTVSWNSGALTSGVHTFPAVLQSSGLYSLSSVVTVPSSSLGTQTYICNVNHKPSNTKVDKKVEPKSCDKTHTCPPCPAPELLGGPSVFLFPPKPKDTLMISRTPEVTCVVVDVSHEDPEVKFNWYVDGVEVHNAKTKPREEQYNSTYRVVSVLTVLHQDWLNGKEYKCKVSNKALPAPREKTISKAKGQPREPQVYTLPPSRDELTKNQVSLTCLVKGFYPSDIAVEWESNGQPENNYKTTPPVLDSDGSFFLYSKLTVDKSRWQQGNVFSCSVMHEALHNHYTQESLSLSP
light: DIVMTQSPLSLPVTPGEPASISCQASESLVHSNRNTYLHWYLQKPGQSPQLLIYKVSNRFSGVPDRFSGSGSGTDFTLKISRVEAEDVGVYYCSQNTHVPPTFGQGTKVEIE
notes: as for B1
B4: GpH7-B3 variant P329W / GpL16-k0 (antibody, human IgG1)
heavy: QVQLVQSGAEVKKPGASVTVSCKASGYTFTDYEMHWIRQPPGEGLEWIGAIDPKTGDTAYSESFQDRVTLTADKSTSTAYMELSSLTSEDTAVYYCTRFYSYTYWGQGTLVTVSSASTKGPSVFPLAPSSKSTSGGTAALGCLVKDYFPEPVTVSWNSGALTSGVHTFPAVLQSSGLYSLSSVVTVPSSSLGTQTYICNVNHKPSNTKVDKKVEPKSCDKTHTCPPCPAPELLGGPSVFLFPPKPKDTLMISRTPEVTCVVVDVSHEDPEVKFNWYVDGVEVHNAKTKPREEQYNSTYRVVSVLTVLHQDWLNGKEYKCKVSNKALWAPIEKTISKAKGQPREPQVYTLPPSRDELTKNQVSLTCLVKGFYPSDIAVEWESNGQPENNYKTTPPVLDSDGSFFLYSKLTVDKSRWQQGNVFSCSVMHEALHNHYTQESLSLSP
light: DIVMTQSPLSLPVTPGEPASISCQASESLVHSNRNTYLHWYLQKPGQSPQLLIYKVSNRFSGVPDRFSGSGSGTDFTLKISRVEAEDVGVYYCSQNTHVPPTFGQGTKVEIE
notes: as for B1
B5: GpH7-B3 variant P329D / GpL16-k0 (antibody, human IgG1)
heavy: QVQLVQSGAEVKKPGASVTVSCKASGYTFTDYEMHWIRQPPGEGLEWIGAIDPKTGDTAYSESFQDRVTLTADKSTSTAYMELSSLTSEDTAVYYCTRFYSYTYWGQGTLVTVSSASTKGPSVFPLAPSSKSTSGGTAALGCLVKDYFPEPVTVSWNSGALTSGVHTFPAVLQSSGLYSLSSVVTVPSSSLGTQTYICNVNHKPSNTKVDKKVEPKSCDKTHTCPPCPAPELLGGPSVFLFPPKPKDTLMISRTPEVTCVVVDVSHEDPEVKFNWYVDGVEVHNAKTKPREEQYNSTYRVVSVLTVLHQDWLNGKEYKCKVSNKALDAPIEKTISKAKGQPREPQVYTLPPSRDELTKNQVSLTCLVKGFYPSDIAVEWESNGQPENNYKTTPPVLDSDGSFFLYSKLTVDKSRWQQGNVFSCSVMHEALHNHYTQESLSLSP
light: DIVMTQSPLSLPVTPGEPASISCQASESLVHSNRNTYLHWYLQKPGQSPQLLIYKVSNRFSGVPDRFSGSGSGTDFTLKISRVEAEDVGVYYCSQNTHVPPTFGQGTKVEIE
notes: as for B1
B6: GpH7-B3 variant P331K / GpL16-k0 (antibody, human IgG1)
heavy: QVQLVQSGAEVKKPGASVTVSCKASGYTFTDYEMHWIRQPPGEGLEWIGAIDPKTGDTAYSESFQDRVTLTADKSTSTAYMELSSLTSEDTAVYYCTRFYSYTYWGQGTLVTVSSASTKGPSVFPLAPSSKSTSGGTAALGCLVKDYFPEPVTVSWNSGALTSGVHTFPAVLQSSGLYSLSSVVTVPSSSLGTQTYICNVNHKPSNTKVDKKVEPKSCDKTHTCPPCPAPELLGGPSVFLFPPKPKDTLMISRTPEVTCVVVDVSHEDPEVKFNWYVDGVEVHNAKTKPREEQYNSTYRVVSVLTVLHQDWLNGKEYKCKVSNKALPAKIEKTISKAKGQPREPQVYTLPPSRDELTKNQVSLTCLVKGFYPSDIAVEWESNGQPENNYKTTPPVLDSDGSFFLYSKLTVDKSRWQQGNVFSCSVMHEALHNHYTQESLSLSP
light: DIVMTQSPLSLPVTPGEPASISCQASESLVHSNRNTYLHWYLQKPGQSPQLLIYKVSNRFSGVPDRFSGSGSGTDFTLKISRVEAEDVGVYYCSQNTHVPPTFGQGTKVEIE
notes: as for B1
B7: GpH7-B3 variant P331R / GpL16-k0 (antibody, human IgG1)
heavy: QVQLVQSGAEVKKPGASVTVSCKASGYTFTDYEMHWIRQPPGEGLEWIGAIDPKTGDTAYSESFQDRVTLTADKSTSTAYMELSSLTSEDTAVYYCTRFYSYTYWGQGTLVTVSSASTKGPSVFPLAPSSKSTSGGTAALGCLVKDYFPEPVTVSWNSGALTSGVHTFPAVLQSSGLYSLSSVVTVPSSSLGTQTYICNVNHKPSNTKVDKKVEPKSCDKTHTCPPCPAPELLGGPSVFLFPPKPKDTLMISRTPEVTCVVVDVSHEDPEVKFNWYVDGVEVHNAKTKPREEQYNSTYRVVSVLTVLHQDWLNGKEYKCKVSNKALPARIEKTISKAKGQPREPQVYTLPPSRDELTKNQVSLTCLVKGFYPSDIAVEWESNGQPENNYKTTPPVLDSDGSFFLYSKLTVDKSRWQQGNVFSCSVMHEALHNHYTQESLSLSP
light: DIVMTQSPLSLPVTPGEPASISCQASESLVHSNRNTYLHWYLQKPGQSPQLLIYKVSNRFSGVPDRFSGSGSGTDFTLKISRVEAEDVGVYYCSQNTHVPPTFGQGTKVEIE
notes: as for B1
B8: GpH7-B3 variant P329S / GpL16-k0 (antibody, human IgG1)
heavy: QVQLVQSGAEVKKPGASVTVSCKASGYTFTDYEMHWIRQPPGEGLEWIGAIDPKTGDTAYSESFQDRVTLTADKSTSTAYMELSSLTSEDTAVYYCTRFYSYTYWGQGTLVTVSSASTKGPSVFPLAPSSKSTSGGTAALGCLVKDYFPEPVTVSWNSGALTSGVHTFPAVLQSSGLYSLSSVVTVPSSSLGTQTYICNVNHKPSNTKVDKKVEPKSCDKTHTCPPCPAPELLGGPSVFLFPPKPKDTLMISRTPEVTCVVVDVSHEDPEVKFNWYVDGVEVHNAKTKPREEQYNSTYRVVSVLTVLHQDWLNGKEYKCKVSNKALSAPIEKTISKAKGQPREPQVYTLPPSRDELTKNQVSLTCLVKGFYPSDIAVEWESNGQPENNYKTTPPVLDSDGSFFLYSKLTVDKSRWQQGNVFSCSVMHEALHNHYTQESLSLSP
light: DIVMTQSPLSLPVTPGEPASISCQASESLVHSNRNTYLHWYLQKPGQSPQLLIYKVSNRFSGVPDRFSGSGSGTDFTLKISRVEAEDVGVYYCSQNTHVPPTFGQGTKVEIE
notes: as for B1
B9: GpH7-B3 variant P329N / GpL16-k0 (antibody, human IgG1)
heavy: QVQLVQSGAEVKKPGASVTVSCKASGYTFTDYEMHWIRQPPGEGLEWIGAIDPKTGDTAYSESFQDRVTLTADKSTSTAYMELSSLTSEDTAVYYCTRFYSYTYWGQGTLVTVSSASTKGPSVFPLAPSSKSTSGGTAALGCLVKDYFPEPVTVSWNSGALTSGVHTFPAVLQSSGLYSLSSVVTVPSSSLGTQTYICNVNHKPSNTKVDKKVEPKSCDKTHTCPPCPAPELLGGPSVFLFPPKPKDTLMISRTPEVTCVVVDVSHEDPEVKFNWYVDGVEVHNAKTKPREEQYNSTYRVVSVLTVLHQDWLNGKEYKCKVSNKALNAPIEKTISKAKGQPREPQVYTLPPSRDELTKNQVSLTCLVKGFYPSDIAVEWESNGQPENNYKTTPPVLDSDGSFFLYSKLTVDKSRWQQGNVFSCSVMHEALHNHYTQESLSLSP
light: DIVMTQSPLSLPVTPGEPASISCQASESLVHSNRNTYLHWYLQKPGQSPQLLIYKVSNRFSGVPDRFSGSGSGTDFTLKISRVEAEDVGVYYCSQNTHVPPTFGQGTKVEIE
notes: as for B1
B10: GpH7-B3 variant P329Y / GpL16-k0 (antibody, human IgG1)
heavy: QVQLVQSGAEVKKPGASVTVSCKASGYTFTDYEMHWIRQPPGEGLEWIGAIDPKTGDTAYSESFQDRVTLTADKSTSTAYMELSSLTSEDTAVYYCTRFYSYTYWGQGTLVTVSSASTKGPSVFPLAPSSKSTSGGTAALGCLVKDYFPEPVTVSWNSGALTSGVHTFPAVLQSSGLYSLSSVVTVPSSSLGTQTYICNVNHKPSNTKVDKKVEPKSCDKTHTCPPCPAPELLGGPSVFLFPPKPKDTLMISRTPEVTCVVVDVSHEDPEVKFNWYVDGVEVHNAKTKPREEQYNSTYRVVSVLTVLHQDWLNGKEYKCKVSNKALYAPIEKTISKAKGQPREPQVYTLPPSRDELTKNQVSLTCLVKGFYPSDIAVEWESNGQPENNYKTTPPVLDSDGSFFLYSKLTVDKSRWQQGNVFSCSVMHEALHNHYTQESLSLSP
light: DIVMTQSPLSLPVTPGEPASISCQASESLVHSNRNTYLHWYLQKPGQSPQLLIYKVSNRFSGVPDRFSGSGSGTDFTLKISRVEAEDVGVYYCSQNTHVPPTFGQGTKVEIE
notes: as for B1
B11: IL6R-F652/IL6R-L (antibody, human IgG1)
heavy: QVQLQESGPGLVKPSETLSLTCAVSGHSISHDHAWSWVRQPPGEGLEWIGFISYSGITNYNPSLQGRVTISRDNSKNTLYLQMNSLRAEDTAVYYCARSLARTTAMDYWGEGTLVTVSSASTKGPSVFPLAPSSKSTSGGTAALGCLVKDYFPEPVTVSWNSGALTSGVHTFPAVLQSSGLYSLSSVVTVPSSSLGTQTYICNVNHKPSNTKVDKKVEPKSCDKTHTCPPCPAPELLGGDSVFLFPPKPKDTLYISRTPEVTCVVVDVSHEDPEVKFNWYVDGVEVHNAKTKPREEQYNSTYRVVSVLTVLHQDWLNGKEYKCKVSNKALPAPIEKTISKAKGQPREPQVYTLPPSRDELTKNQVSLTCLVKGFYPSDIAVEWESNGQPENNYKTTPPVLDSDGSFFLYSKLTVDKSRWQQGNVFSCSVMHEALHYHYTQKSLSLSP
light: DIQMTQSPSSLSASVGDRVTITCRASQDISSYLNWYQQKPGKAPKLLIYYTSRLHSGVPSRFSGSGSGTDFTFTISSLQPEDIATYYCQQGNTLPYTFGQGTKVEIK
notes: P238D introduced into IL6R-F11 (M252Y/N434Y in IL6R-G1d); also called P238D
B12: IL6R-PD086/IL6R-L (antibody, human IgG1)
heavy: QVQLQESGPGLVKPSETLSLTCAVSGHSISHDHAWSWVRQPPGEGLEWIGFISYSGITNYNPSLQGRVTISRDNSKNTLYLQMNSLRAEDTAVYYCARSLARTTAMDYWGEGTLVTVSSASTKGPSVFPLAPSSKSTSGGTAALGCLVKDYFPEPVTVSWNSGALTSGVHTFPAVLQSSGLYSLSSVVTVPSSSLGTQTYICNVNHKPSNTKVDKKVEPKSCDKTHTCPPCPAPELLGLDSVFLFPPKPKDTLYISRTPEVTCVVVDVSHEDPEVKFNWYVDGVEVHNAKTKPREEQYNSTYRVVSVLTVLHQDWLNGKEYKCKVSNKALPAPIEKTISKAKGQPREPQVYTLPPSRDELTKNQVSLTCLVKGFYPSDIAVEWESNGQPENNYKTTPPVLDSDGSFFLYSKLTVDKSRWQQGNVFSCSVMHEALHYHYTQKSLSLSP
light: DIQMTQSPSSLSASVGDRVTITCRASQDISSYLNWYQQKPGKAPKLLIYYTSRLHSGVPSRFSGSGSGTDFTFTISSLQPEDIATYYCQQGNTLPYTFGQGTKVEIK
notes: Alterations introduced into IL6R-F11; also called P238D/G237L

Key:
human FcγRIa = biological target: T6, human FcγRIa (human, UniProt P12314 16-292, limits assumed); assay: SPR (Biacore), antibody captured, FcγR analyte, 25 C; normalised to captured antibody, GpH7-B3/GpL16-k0 = 100;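 note: antibodies held on sensor chips through immobilized antigen peptide, Protein A, Protein A/G or Protein L, with HBS-EP+ running buffer and FcγR in solution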
T6 construct: Soluble analyte in SPR; also called hFcgRIa; FcgRIa
Procedure: (§1) Interaction between each modified antibody and Fcγ receptor prepared in the manner described above was analyzed using the BIACORE™ T100 surface plasmon resonance system (GE Healthcare), BIACORE™ T200 surface plasmon resonance system (GE Healthcare), BIACORE™ A100 surface plasmon resonance system or BIACORE™ 4000 surface plasmon resonance system. HBS-EP+(GE Healthcare) was used for the running buffer, and measurements were carried out at 25° C. The chips used were chips in which antigen peptides, Protein A (Thermo Scientific), Protein A/G (Thermo Scientific) or Protein L (ACTIGEN® protein (Alltech or BioVision) were immobilized on the Series S Sensor Chip CM5 (GE Healthcare) or Series S Sensor Chip CM4 (GE Healthcare) by amine coupling, or chips in which preliminarily biotinylated antigen peptides were allowed to interact and then immobilized on the Series S Sensor Chip SA (certified) (GE Healthcare). The target antibodies were captured on these sensor chips, Fcγ receptor diluted with the running buffer was allowed to interact, followed by measurement of the amount of bound antibody. The amounts bound were compared between antibodies. However, since the amount of Fcγ receptor bound depends on the amount of captured antibody, the values used for comparison were first corrected by dividing the amount of Fcγ receptor bound by the captured amount of each antibody. Through reaction with 10 mM glycine-HCl at pH 1.5, the sensor chips were regenerated by washing off antibody captured on the sensor chips and used repeatedly.
(§2) Binding strength was evaluated according to the following method based on the results of analyzing the interaction with each FcγR. […] That value was then further multiplied by 100, and the resulting value was used as an indicator of relative binding activity to each FcγR.

[1] = biological target: T1, human FcγRIIa(R) (allotype R131); assay: as above
Procedure: as §1, §2

[2] = biological target: T2, human FcγRIIa(H) (allotype H131); assay: as above
Procedure: as §1, §2

human FcγRIIb [3] = biological target: T3, human FcγRIIb; assay: as above
Procedure: as §1, §2

[4] = biological target: T7, human FcγRIIIa(F) (allotype F158) (human, UniProt P08637 17-208, limits assumed); assay: as above
T7 construct: also called hFcgRIIIa(F); FcgRIIIaF
Procedure: as §1, §2

human FcγRIIb [5] = biological target: T4, human FcγRIIb; assay: SPR (Biacore), captured antibody, FcγR as analyte; binding amount divided by that of IL6R-F652/IL6R-L, times 100
human FcγRIIa type R = biological target: T5, human FcγRIIa type R; assay: as above

T6 sequence (P12314 16-292 limits assumed): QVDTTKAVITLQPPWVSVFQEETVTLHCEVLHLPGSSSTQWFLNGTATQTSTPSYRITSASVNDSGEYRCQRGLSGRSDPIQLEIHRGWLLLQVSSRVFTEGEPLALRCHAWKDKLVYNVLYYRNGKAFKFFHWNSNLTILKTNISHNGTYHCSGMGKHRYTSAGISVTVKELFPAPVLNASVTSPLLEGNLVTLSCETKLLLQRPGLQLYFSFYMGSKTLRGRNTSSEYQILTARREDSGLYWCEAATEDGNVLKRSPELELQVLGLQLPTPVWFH
T7 sequence (P08637 other isoform, or with tags, fused parts or gaps limits assumed): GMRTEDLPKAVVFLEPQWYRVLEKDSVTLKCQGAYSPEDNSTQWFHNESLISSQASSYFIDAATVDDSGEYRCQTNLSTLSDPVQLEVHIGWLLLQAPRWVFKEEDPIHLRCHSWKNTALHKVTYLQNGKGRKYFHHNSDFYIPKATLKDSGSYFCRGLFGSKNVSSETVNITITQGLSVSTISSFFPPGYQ

Row | relative binding activity (parent antibody = 100) (human FcγRIa) | relative binding activity (parent antibody = 100) [1] | relative binding activity (parent antibody = 100) [2] | relative binding activity (parent antibody = 100) (human FcγRIIb [3]) | relative binding activity (parent antibody = 100) [4] | RELATIVE BINDING ACTIVITY FOR FcγRIIb (human FcγRIIb [5]) | RELATIVE BINDING ACTIVITY FOR FcγRIIaR (human FcγRIIa type R) | Binder
1 | 100 % of control | 34 % of control | 26 % of control | 41 % of control | 14 % of control | – | – | B1
2 | 33 % of control | -1 % of control | 0 % of control | -2 % of control | -1 % of control | – | – | B2
3 | 95 % of control | 28 % of control | 70 % of control | 23 % of control | 61 % of control | – | – | B3
4 | 94 % of control | 1 % of control | 0 % of control | 0 % of control | 0 % of control | – | – | B4
5 | 23 % of control | 1 % of control | -1 % of control | -2 % of control | -1 % of control | – | – | B5
6 | 98 % of control | 72 % of control | 58 % of control | 63 % of control | 34 % of control | – | – | B6
7 | 95 % of control | 64 % of control | 59 % of control | 55 % of control | 38 % of control | – | – | B7
8 | 60 % of control | 0 % of control | 1 % of control | 1 % of control | 1 % of control | – | – | B8
9 | 45 % of control | 4 % of control | 5 % of control | 0 % of control | 3 % of control | – | – | B9
10 | 76 % of control | -1 % of control | 0 % of control | -3 % of control | 0 % of control | – | – | B10
11 | – | – | – | – | – | 100 relative (IL6R-F652/IL6R-L = 100) | 100 relative (IL6R-F652/IL6R-L = 100) | B11
12 | – | – | – | – | – | 112 relative (IL6R-F652/IL6R-L = 100) | 268 relative (IL6R-F652/IL6R-L = 100) | B12

Source: US20230257470A1 (published 2023)
